Molecular target: the molecule itself
Assay: cryo-EM structure; single-particle cryo-EM of the native TMC-2 complex isolated from worms (anti-FLAG affinity, SEC, GDN, 1 mM CaCl2); cis-dimeric particles selected

B1: TMC-2 (transmembrane channel-like protein 2), native, tagged with mVenus-3xFLAG at the endogenous locus (natural protein, C. elegans, UniProt Q11069 1-1203, looked up)
chain: MPKSGAHQPLVRHDTDDGGETGQSVKSLADVSEEEIDSRMSRRSSVIADLLSLFRRSSSVLVRPHTRLGNPNFDDDDDEFDEEDDKEASKDRILKKIQQKKEIIQKLRGQPWYMKRKRRTLKVAQKHLQQQEAKVSKARLYKAEAGRRLTQASRWLDNLKIYLIPWEAKIRKIESHFGSVVSSYFTFHRWVLGVNITITFIMCMFVVIPEWLADSRTQFGDDRYNKTKAIKVMPPAVRARADELSTVWDFGGYFQYSLLFYGFYSKETFFGETIKYRVPVAYFFCNIFILGFSLFIILRKMAANNRRGTLSSGKTQQYLFNWKAFTGWDYTIGNPETAGNVYMANVIKFREAINDDKQKPSDKHPWIRFVARVLTNLFICAMYVFSIWAIMQCGTLKGEHFFAQNATAITISLITLVFPNIFDLLGKIEKLHPRNALRFQLGRVLVLYILNYYTLIYSLMLQLEHLQKEKNASDNPISALGHPGDAIGRTIRETVLPRYPVDNNPHTYYSYAPVTTTPIPATSSWTTVLPDFGPFGVYNPKASVTKDDTVFSSPVVETHMFGPNSDWNETTVNAASPTGATTRASLRMSQGGLCWETIIGQEITKLVTMDLYMTVASIFLIDFLRGLACRYLNLYWPWDLERTFPEYGEFKVAENVLHLVNNQGMIWLGLFFVPLLPMLNNIKLIILMYIRGWAAMTCNVPASQIFRASRSSNFFFALLILFLFLCTLPVGFVIASKTPSKSCGPFGNQSFFYSVITDVLHENLDKTLVNGIKYSLSPGIIIPVLVLLSLVIYFLIAMVTGLSQANQDLSFQLMVERTEEKKKIFELAGGKKKKSKDNTFGKQKPKQLLPPPTKGVSSDDDSQHNRSTAKSVSGRQFVPSLGSVSEVDHSTGEEQSSDSESTTSSLPPKLSLRQRFLVCIGWADPNKYGRHDDIEMEEGGGRLRELSTGSETDSDDEDSEKSNRDMSYRTAIQSFDQNSQSASASSSKSTTTAPSNSEMRIEITENPLHTYITPLRIEKKSSASSSSSSHQPSSSIEKQAARRLLQPISTTHNIRYGVATVENSSQDPTRPPSTDDSLGDPALHEPLWANLNPHSSYTSAMMSPIMNEVMSNDETTDDEKGRLIPDRPPIPHSPRELKRLKREKDQQSESGSKPSTPRPPRFRISMSPPRKPPSEKNDSDSSNRKYEMRVEKSPKKPKKSDND
modifications: N-glycans at N225 and N748
notes: TMC-2, C. elegans, endogenous tmc-2 gene (Wormbase B0416.1a); tag inserted prior to the stop codon; residues M1 to D1203 named; modelled 89-471, 583-813; A 3C (PreScission) site lies between mVenus and 3xFLAG; The complex was captured on anti-FLAG resin by the 3xFLAG tag, which was cut off on elution with 3C protease before SEC, mass spectrometry and cryo-EM; also called TMC-2-mVenus; …
- stoichiometry N: 2

— PMC10895266, “The structure of the Caenorhabditis elegans TMC-2 complex suggests roles of lipid-mediated subunit contacts in mechanosensory transduction” (Proceedings of the National Academy of Sciences of the …, 2024)
